Measurements from patent publication CN114316037A.

Substrate: O型口蹄疫病毒灭活抗原 (Foot-and-mouth disease virus, serotype O (strain not stated))

B1: 单克隆抗体m19 (O型口蹄疫病毒结构蛋白的单克隆抗体m19) (antibody, V domains shown)
VH: QVQLQQPGSELVRPGASVNLSCKASGYTFPSYWMHWVKQRPGQGLEWIGNIFPDGGFTNYDENFKSRATLTVDTSSSTAYMQLSSLTSEDSAVYYCTTIYDYVVGVGAMDYWGQGTSVTVSS
VL: DIVMTQSPAIMSASPGEKVTITCSASSSISYMYWFQQKTGTSPKLWIYKTSDLASGVPARFSGSGSGTSYSLTISRMEAEDAATYYCQQRNSYTFGGGTKLELK
Work on B1 yielded a 最佳使用浓度 (concentration giving OD450 of 1.6) of 7 µg/mL.
